Test results reported in patent US20060140968A1 (GREEN PEPTIDE, published 2006).

Legend:
HLA-A2402 = biological target: T1, HLA-A2402 (human, UniProt P04439-2 25-302 at identity 0.92)); assay: cell-based or functional assay
T1 MHC heavy: not shown

HLA-A0201 = biological target: T2, HLA-A0201 (human, UniProt P04439 25-302 at identity 0.94)); assay: cell-based or functional assay
T2 MHC heavy: not shown

B1: SART-3 peptide "448-456" Ala-Phe-Thr-Arg-Ala-Leu-Glu-Tyr-Leu (peptide)
peptide: AFTRALEYL
In the case of B1, the “IFN-γ in the supernatant (pg/ml) produced by KE-4CTL on HLA-A2402-transfected VA-13 cells pulsed with 10 µM peptide (no peptide: 677)” value (“IFN-γ in the supernatant … (no peptide: 677)” for short) (HLA-A2402) is reported as 754 pg/mL.

B2: SART-3 peptide "426-434" Asp-Tyr-Leu-Arg-Arg-Arg-Val-Asp-Phe (peptide)
peptide: DYLRRRVDF
In the case of B2, the “IFN-γ in the supernatant … (no peptide: 677)” value (HLA-A2402) is reported as 833 pg/mL.

B3: SART-3 peptide "302-310" (peptide)
peptide: LLQAEAPRL
In the case of B3, the “IFN-γ in the supernatant (pg/ml) produced by OK-CTL on HLA-A0201-positive T2 cells pulsed with 10 µM peptide, value with no peptide subtracted” value (shortened to “IFN-γ … with no peptide subtracted”) (HLA-A0201) is reported as 190 pg/mL.

B4: SART-3 peptide "386-394" (peptide)
peptide: LLAMERHGV
With B4 the “IFN-γ … with no peptide subtracted” value (HLA-A0201) was 122 pg/mL.

B5: SART-3 peptide "416-425" (peptide)
peptide: DYVEIWQAYL
With B5 the “IFN-γ in the supernatant … (no peptide: 677)” value (HLA-A2402) was 731 pg/mL.

B6: SART-3 peptide "315-323" Ala-Tyr-Ile-Asp-Phe-Glu-Met-Lys-Ile (peptide)
peptide: AYIDFEMKI
With B6 the “IFN-γ in the supernatant … (no peptide: 677)” value (HLA-A2402) was 880 pg/mL.

B7: SART-3 peptide "309-317" (peptide)
peptide: RLAEYQAYI
For B7, the “IFN-γ … with no peptide subtracted” value (HLA-A0201) was 231 pg/mL.

B8: SART-3 peptide "152-160" (peptide)
peptide: WLHDEISMA
B8 was tested, and the “IFN-γ … with no peptide subtracted” value (HLA-A0201) was 162 pg/mL.

B9: SART-3 peptide "172-181" Leu-Phe-Glu-Lys-Ala-Val-Lys-Asp-Tyr-Ile (peptide)
peptide: LFEKAVKDYI
B9 was tested, and the “IFN-γ in the supernatant … (no peptide: 677)” value (HLA-A2402) was 830 pg/mL.

B10: SART-3 peptide "284-292" Asn-Tyr-Asn-Lys-Ala-Leu-Gln-Gln-Leu (peptide)
peptide: NYNKALQQL
In the case of B10, the “IFN-γ in the supernatant … (no peptide: 677)” value (HLA-A2402) is reported as 794 pg/mL.

B11: SART-3 peptide "249-257" (peptide)
peptide: SLFRRQLAI
With B11 the “IFN-γ … with no peptide subtracted” value (HLA-A0201) was 209 pg/mL.

B12: SART-3 peptide "109-118" Val-Tyr-Asp-Tyr-Asn-Cys-His-Val-Asp-Leu (peptide)
peptide: VYDYNCHVDL
In the case of B12, the “IFN-γ in the supernatant … (no peptide: 677)” value (HLA-A2402) is reported as 928 pg/mL.
